Laboratory results published in the supplement of paper PMC11246515.
± gives the standard deviation of the averaged measurements.

Assay: total protein half-life in vivo (active degradation + dilution); higher = more stable protein
[1] = E. coli NCM3722 delta-clpP delta-lon delta-hslV, growth: N-lim chemostat, doubling time 6 h
[2] = E. coli NCM3722 delta-clpP, growth: N-lim chemostat, doubling time 6 h
[3] = E. coli NCM3722 delta-hslV, growth: N-lim chemostat, doubling time 6 h
[4] = E. coli NCM3722 delta-lon, growth: N-lim chemostat, doubling time 6 h
[5] = E. coli NCM3722 delta-smpB, growth: N-lim chemostat, doubling time 6 h
[6] = wild type E. coli NCM3722, growth: C-lim chemostat, doubling time 3 h
[7] = wild type E. coli NCM3722, growth: C-lim chemostat, doubling time 6 h
[8] = wild type E. coli NCM3722, growth: C-lim chemostat, doubling time 12 h
[9] = wild type E. coli NCM3722, growth: N-lim chemostat, doubling time 6 h
[10] = wild type E. coli NCM3722, growth: N-lim chemostat, doubling time 12 h
[11] = wild type E. coli NCM3722, growth: P-lim chemostat, doubling time 6 h
[12] = wild type E. coli NCM3722, growth: P-lim chemostat, doubling time 12 h

| Sequence | total protein half-life in vivo [1] [h] | total protein half-life in vivo [2] [h] | total protein half-life in vivo [3] [h] | total protein half-life in vivo [4] [h] | total protein half-life in vivo [5] [h] | total protein half-life in vivo [6] [h] | total protein half-life in vivo [7] [h] | total protein half-life in vivo [8] [h] | total protein half-life in vivo [9] [h] | total protein half-life in vivo [10] [h] | total protein half-life in vivo [11] [h] | total protein half-life in vivo [12] [h] |
| --- | --- | --- | --- | --- | --- | --- | --- | --- | --- | --- | --- | --- |
| MPQHDQLHRYLFENFAVRGELVTVSETLQQILENHDYPQPVKNVLAELLVATSLLTATLKFDGDITVQLQGDGPMNLAVINGNNNQQMRGVARVQGEIPENADLKTLVGNGYVVITITPSEGERYQGVVGLEGDTLAACLEDYFMRSEQLPTRLFIRTGDVDGKPAAGGMLLQVMPAQNAQQDDFDHLATLTETIKTEELLTLPANEVLWRLYHEEEVTVYDPQDVEFKCTCSRERCADALKTLPDEEVDSILAEDGEIDMHCDYCGNHYLFNAMDIAEIRNNASPADPQVH [P0A6Y5] | 4.77 ± 0.4 | 4.06 ± 0.058 | 4.35 ± 0.87 | 4.6 ± 0.6 | 3.55 ± 0.12 | 1.924 ± 0.015 | 3.85 ± 0.11 | 7.32 ± 0.54 | 4.02 ± 0.13 | 6.02 ± 0.22 | 4.51 ± 0.073 | 9.18 ± 2 |
| MPQISRYSDEQVEQLLAELLNVLEKHKAPTDLSLMVLGNMVTNLINTSIAPAQRQAIANSFARALQSSINEDKAH [P0AD24] | 6.24 ± 0.65 | 4.76 | 5.69 ± 0.2 | 4.63 ± 1.3 | 4.16 ± 1.4 | 2.99 ± 0.041 | 5.16 ± 0.18 | 10.1 ± 0.73 | 3.54 ± 0.42 | 9.19 | 5.83 | 10.4 |
| MPQQIELRNIALQAAQPLVHGVSLTLQRGRVLALVGGSGSGKSLTCAATLGILPAGVRQTAGEILADGKPVSPCALRGIKIATIMQNPRSAFNPLHTMHTHARETCLALGKPADDATLTAAIEAVGLENAARVLKLYPFEMSGGMLQRMMIAMAVLCESPFIIADEPTTDLDVVAQARILDLLESIMQKQAPGMLLVTHDMGVVARLADDVAVMSDGKIVEQGDVETLFNAPKHTVTRSLVSAHLALYGMELAS | 4.47 | – | – | – | – | – | – | – | – | – | – | – |
| MPQQNYLDELTPAFTSLLAIKEASRCLLCHDAPCSQACPAQTDPGKFIRSIYFRNFKGAAETIRENNALGAVCARVCPTEKLCQSGCTRAGVDAPIDIGRLQRFVTDFEQQTGMEIYQPGTKTLGKVAIIGAGPAGLQASVTLTNQGYDVTIYEKEAHPGGWLRNGIPQFRLPQSVLDAEIARIEKMGVTIKCNNEVGNTLTLEQLKAENRAVLVTVGLSSGSGLPLFEHSDVEIAVDFLQRARQAQGDISIPQSALIIGGGDVAMDVASTLKVLGCQAVTCVAREELDEFPASEKEFTSARELGVSIIDGFTPVAVEGNKVTFKHVRLSGELTMAADKIILAVGQHARLDAFAELEPQRNTIKTQNYQTRDPQVFAAGDIVEGDKTVVYAVKTGKEAAEAIHHYLEGACSC | > 8 | – | – | – | – | 1.14 ± 0.029 | 1.42 ± 0.22 | 2.52 ± 1.1 | – | – | – | – |
| MPQRILVLGASGYIGQHLVRTLSQQGHQILAAARHVDRLAKLQLANVSCHKVDLSWPDNLPALLQDIDTVYFLVHSMGEGGDFIAQERQVALNVRDALREVPVKQLIFLSSLQAPPHEQSDHLRARQATADILREANVPVTELRAGIIVGAGSAAFEVMRDMVYNLPVLTPPRWVRSRTTPIALENLLHYLVALLDHPASEHRIFEAAGPEVLSYQQQFEHFMAVSGKRRWLIPIPLPTRWISVWFLNVITSVPPTTARALIQGLKHDLLADDTALRALIPQRLIAFDDAVRSTLKEEEKLVNSSDWGYDAQAFARWRPEYGYFAKQAGFTVKTSASLAALWQVVNQIGGKERYFFGNILWQTRALMDRAIGHKLAKGRPEREYLQTGDAVDSWKVIVVEPEKQLTLLFGMKAPGLGRLCFSLEDKGDYRTIDVRAFWHPHGMPGLFYWLLMIPAHLFIFRGMAKQIARLAEQSTD | – | 6.7 ± 0.22 | 6.57 ± 0.8 | 6.64 ± 0.098 | 6.11 ± 0.37 | 2.94 ± 0.081 | 5.88 ± 0.11 | 12.1 ± 2.1 | 6.42 ± 0.19 | 11.8 ± 0.4 | 5.23 ± 0.016 | 11.1 ± 0.83 |
| MPRGLELLIAQTILQGFDAQYGRFLEVTSGAQQRFEQADWHAVQQAMKNRIHLYDHHVGLVVEQLRCITNGQSTDAAFLLRVKEHYTRLLPDYPRFEIAESFFNSVYCRLFDHRSLTPERLFIFSSQPERRFRTIPRPLAKDFHPDHGWESLLMRVISDLPLRLRWQNKSRDIHYIIRHLTETLGTDNLAESHLQVANELFYRNKAAWLVGKLITPSGTLPFLLPIHQTDDGELFIDTCLTTTAEASIVFGFARSYFMVYAPLPAALVEWLREILPGKTTAELYMAIGCQKHAKTESYREYLVYLQGCNEQFIEAPGIRGMVMLVFTLPGFDRVFKVIKDRFAPQKEMSAAHVRACYQLVKEHDRVGRMADTQEFENFVLEKRHISPALMELLLQEAAEKITDLGEQIVIRHLYIERRMVPLNIWLEQVEGQQLRDAIEEYGNAIRQLAAANIFPGDMLFKNFGVTRHGRVVFYDYDEICYMTEVNFRDIPPPRYPEDELASEPWYSVSPGDVFPEEFRHWLCADPRIGPLFEEMHADLFRADYWRALQNRIREGHVEDVYAYRRRQRFSVRYGEMLF | 4.97 | 3.61 | – | – | – | – | 6.35 ± 0.23 | 10.7 ± 0.2 | – | – | – | 11.9 |
| MPRSTWFKALLLLVALWAPLSQAETGWQPIQETIRKSDKDNRQYQAIRLDNGMVVLLVSDPQAVKSLSALVVPVGSLEDPEAYQGLAHYLEHMSLMGSKKYPQADSLAEYLKMHGGSHNASTAPYRTAFYLEVENDALPGAVDRLADAIAEPLLDKKYAERERNAVNAELTMARTRDGMRMAQVSAETINPAHPGSKFSGGNLETLSDKPGNPVQQALKDFHEKYYSANLMKAVIYSNKPLPELAKMAADTFGRVPNKESKKPEITVPVVTDAQKGIIIHYVPALPRKVLRVEFRIDNNSAKFRSKTDELITYLIGNRSPGTLSDWLQKQGLVEGISANSDPIVNGNSGVLAISASLTDKGLANRDQVVAAIFSYLNLLREKGIDKQYFDELANVLDIDFRYPSITRDMDYVEWLADTMIRVPVEHTLDAVNIADRYDAKAVKERLAMMTPQNARIWYISPKEPHNKTAYFVDAPYQVDKISAQTFADWQKKAADIALSLPELNPYIPDDFSLIKSEKKYDHPELIVDESNLRVVYAPSRYFASEPKADVSLILRNPKAMDSARNQVMFALNDYLAGLALDQLSNQASVGGISFSTNANNGLMVNANGYTQRLPQLFQALLEGYFSYTATEDQLEQAKSWYNQMMDSAEKGKAFEQAIMPAQMLSQVPYFSRDERRKILPSITLKEVLAYRDALKSGARPEFMVIGNMTEAQATTLARDVQKQLGADGSEWCRNKDVVVDKKQSVIFEKAGNSTDSALAAVFVPTGYDEYTSSAYSSLLGQIVQPWFYNQLRTEEQLGYAVFAFPMSVGRQWGMGFLLQSNDKQPSFLWERYKAFFPTAEAKLRAMKPDEFAQIQQAVITQMLQAPQTLGEEASKLSKDFDRGNMRFDSRDKIVAQIKLLTPQKLADFFHQAVVEPQGMAILSQISGSQNGKAEYVHPEGWKVWENVSALQQTMPLMSEKNE | 6.72 ± 0.29 | 6.24 ± 0.52 | 5.96 ± 0.35 | 6.46 ± 0.14 | 5.53 ± 0.073 | 3.05 ± 0.33 | 5.91 ± 0.59 | 11.5 ± 0.5 | 6.17 ± 0.092 | 11.7 ± 0.35 | 5.28 ± 0.059 | 11.1 ± 0.72 |
